Data from patent US20250019453A1 (SYNTHEKINE, published 2025).

T1: hIL2Rb-his (human, UniProt P14784 27-240)
T1 sequence: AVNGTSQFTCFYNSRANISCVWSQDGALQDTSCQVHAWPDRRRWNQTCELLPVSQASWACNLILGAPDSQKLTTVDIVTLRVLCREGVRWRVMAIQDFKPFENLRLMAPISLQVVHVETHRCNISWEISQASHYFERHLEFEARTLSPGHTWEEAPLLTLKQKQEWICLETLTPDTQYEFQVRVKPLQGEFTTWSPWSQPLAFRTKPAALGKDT

T2: mIL2Rg ECD antigen (murine, UniProt P34902 23-263)
T2 construct: The immunogen was the ECD fused to human IgG1 hinge and Fc; also called ECD of IL2Rg (mouse)
T2 sequence: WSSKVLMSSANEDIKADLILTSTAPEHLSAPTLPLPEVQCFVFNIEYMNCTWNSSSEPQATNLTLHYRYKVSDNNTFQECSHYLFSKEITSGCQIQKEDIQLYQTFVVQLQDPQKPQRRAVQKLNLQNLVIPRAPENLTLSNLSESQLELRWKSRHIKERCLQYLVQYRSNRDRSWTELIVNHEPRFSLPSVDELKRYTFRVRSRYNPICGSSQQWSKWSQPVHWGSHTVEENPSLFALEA

T3: hIL2Rg-his (Sino Biological, Catalog# 10555) (human, UniProt P31785 23-262)
T3 construct: Bought; also called extracellular domain of hIL2Rg
T3 sequence: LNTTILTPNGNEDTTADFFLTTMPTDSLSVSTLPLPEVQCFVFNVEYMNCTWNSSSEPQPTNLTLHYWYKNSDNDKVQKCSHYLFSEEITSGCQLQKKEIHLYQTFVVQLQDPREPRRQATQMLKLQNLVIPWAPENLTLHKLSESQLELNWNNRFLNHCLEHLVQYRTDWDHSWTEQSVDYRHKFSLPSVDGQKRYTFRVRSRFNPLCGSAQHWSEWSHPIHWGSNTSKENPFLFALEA


Legend:
[1] = target: T1, hIL2Rb-his; assay: SPR; ratio of experimental to calculated Rmax
Method: (§1) A representative example from each hIL2Rb VHH clonotype generated as descried above was selected for evaluation of binding via SPR as follows. Evaluation of binding affinity of the hIL2Rb binding molecules shown in Table 16 was conducted using surface plasmon resonance (SPR) in substantial accordance with the following procedure. All experiments were conducted in 10 mM Hepes, 150 mM NaCl, 0.05% (v/v) Polysorbate 20 (PS20) and 3 mM EDTA (HBS-EP+ buffer) on a Biacore T200 instrument equipped with a Protein A derivatized sensor chip (Cytiva). Mono-Fc VHH ligands were flowed at 5 μl/min for variable time ranging from 18 to 300 seconds, reaching the capture loads listed in the tables below. Following ligand capture, injections of a 2-fold dilution series of the extracellular domain of the IL2Rb-receptor modified to incorporate a C-terminal poly-His sequence, typically comprising at least five concentrations between 1 μM and 1 nM, were performed in either high performance or single cycle kinetics mode. Surface regeneration was achieved by flowing 10 mM glycine-HCl, pH 1.5 (60 seconds, […]). Buffer-subtracted sensograms were processed with Biacore T200 Evaluation Software and globally fit with a 1:1 Langmuir binding model (bulk shift set to zero) to extract kinetics and affinity constants (kₐ, kd, KD). RMAX<100 RU indicates surface density compatible with kinetics analysis. Calculated Rₘₐₓ values were generated using the equation: Rmax=Load (RU)×valency of ligand×(Molecular weight of analyte/Molecular weight of ligand). Surface activity was defined as the ratio of experimental/calculated Rmax.

[2] = target: T1, hIL2Rb-his; assay: SPR Biacore T200; Mono-Fc VHH captured on Protein A chip, hIL2Rb-his analyte; 1:1 Langmuir fit
Method: as §1

[3] = target: T2, mIL2Rg ECD antigen; assay: PE-ELISA of phage clones
[4] = target: T3, hIL2Rg-his (Sino Biological, Catalog# …); assay: SPR; ratio of experimental to calculated Rmax
Text: (§2) To confirm and evaluate binding affinities of the binding of the IL2Rg sdAbs, a representative example from each clonotype generated was selected for evaluation of binding via SPR. […] Buffer-subtracted sensograms were processed with Biacore T200 Evaluation Software and globally fit with a 1:1 Langmuir binding model (bulk shift set to zero) to extract kinetics and affinity constants (kₐ, kd, KD). RMAX<100 RU indicates surface density compatible with kinetics analysis. Calculated Rₘₐₓ values were generated using the equation: Rmax=Load (RU)×valency of ligand×(Molecular weight of analyte/Molecular weight of ligand). Surface activity was defined as the ratio of experimental/calculated Rmax.
Calculated Rmax were generated using the equation Rmax=Load (RU)×valency of ligand×(Molecular weight of analyte/Molecular weight of ligand. Surface activity was defined as the ratio experimental/calculated Rmax. See tables 16 and 17 below for sample information and experimental results.

[5] = target: T3, hIL2Rg-his (Sino Biological, Catalog# …); assay: SPR Biacore T200; Mono-Fc VHH captured on Protein A chip, hIL2Rg-his analyte; 1:1 Langmuir fit
Text: as §2
All experiments were conducted in 10 mM Hepes, 150 mM NaCl, 0.05% (v/v) Polysorbate 20 (PS20) and 3 mM EDTA (HBS-EP+ buffer) on a Biacore T200 instrument equipped with a Protein A chip (Cytiva). Mono-Fc VHH ligands were flowed at 5 μl/min for variable time ranging from 18 to 300 seconds, reaching the capture loads listed in the tables below.
Following ligand capture, injections of a 2-fold dilution series of his-tagged cytokine receptors typically comprising at least five concentrations between 1 μM and 1 nM were performed in either high performance or single cycle kinetics mode. Surface regeneration was achieved by flowing 10 mM glycine-HCl, pH 1.5 (60 seconds, 50 μL/min). Buffer-subtracted sensograms were processed with Biacore T200 Evaluation Software and globally fit with a 1:1 Langmuir binding model (bulk shift set to zero) to extract kinetics and affinity constants (kₐ, kd, KD). RMAX<100 RU indicates surface density compatible with kinetics analysis.

Row | Binder | Surface Activity [1] | Kd [2] | koff [2] | kon [2] | further results
1 | hIL2Rb_VHH8 Mono-Fc VHH (Fc fusion, not shown: a dimerising Fc or GST) QVQLQESGGGSVQVGGSLKLSCAASGYTYSSYYCMGWFRQAPGKEREGVAAIDSDGSTSYADSVKGRFTISQDDAKNTLYLQMNSLKPEDTAMYYCAASYEVVDCYPSGYGQDYWGKGTQVTVSS | < 5% | – | – | – | –
2 | hIL2Rb_VHH1 Mono-Fc VHH (Fc fusion, not shown: a dimerising Fc or GST) QVQLQESGGGSVQAGGSLRLSCVGSGYTYDTSDMSWYRQAPGKEREFVSDIDSGDWAAYADAVKGRFTISRDNAKKTVYLQMNSLEPEDTAMYYCKASYWKWGKLNNFWGPGTQVTVSS | 37% | 1 nM | 0.0199 s⁻¹ | 1.98e+07 M⁻¹ s⁻¹ | –
3 | hIL2Rb_VHH2 Mono-Fc VHH (Fc fusion, not shown: a dimerising Fc or GST) QVQLQESGGGLVQPGGSLRLSCVASGFTFSNYWIFWVRQAAGKGLEWLSTSNTGGDTTKYADSVKGRFTISRDSAKNTEYLQMNSLKPEDTAVYYCETGRCARSGGYQGTQVTVSS | 26% | 16 nM | 0.00224 s⁻¹ | 139000 M⁻¹ s⁻¹ | –
4 | hIL2Rb_VHH3 Mono-Fc VHH (Fc fusion, not shown: a dimerising Fc or GST) QVQLQESGGGLVQPGGSLKLSCAASGFRFSNYGMSWVRQAPGEGLEWVSYINGDGSRTHYADSVKGRFTISRDNAKNTLYLQLNSLKTEDTAMYYCEKGLSRDGWSLSAASRGQGTQVTVSS | 52% | 47 nM | 0.00699 s⁻¹ | 157000 M⁻¹ s⁻¹ | –
5 | hIL2Rb_VHH4 Mono-Fc VHH (Fc fusion, not shown: a dimerising Fc or GST) QVQLQESGGGSVQTGGSLRLSCAVSGYTTYSFNYMGWFRQAPGKEREGVAVIYTGGGSTLYADSVKGRFTISQDNAKNTVYLQMNSLKPEDTAMYYCAADDQRFASPLYAYFGYWGQGTQVTVSS | 96% | 3.4 nM | 0.00205 s⁻¹ | 600000 M⁻¹ s⁻¹ | –
6 | mIL2Rg_VHH14 (VHH, As a his-tagged phage clone periplasmic extract) VHH: QVQLQESGGGSVQAGGSLRLSCAASGFTFDDFDMGWYRQAPGNECELVSTISDDGSTYYANSVKGRSSISRDNAKNMVYLQMNSLKPEDTAVYYCAAEGALGSKTNCGWVGNFGYWGQGTQVTVSS | – | – | – | – | binding result [3]: binds
7 | mIL2Rg_VHH15 (VHH, As a his-tagged phage clone periplasmic extract) VHH: QVQLQESGGGSVQAGGSLRLSCTASGFTFDDFDMGWYRQAPGNECELVSTISDDGSTYYADSVKGRSSISRDNAKNTVYLQMNRLKPEDTGVYYCAAEGALGSKMNCGWVGNFGYWGQGTQVTVSS | – | – | – | – | binding result [3]: binds
8 | mIL2Rg_VHH12 (VHH, As a his-tagged phage clone periplasmic extract) VHH: QVQLQESGGGSVLAGGSLRLSCVASGYGYNYIGWFRQTPGKEREGVAVIYIGGGDTYYADSVKGRFTASRDNAKSTLYLQMNSLEPEDTAMYYCVARYCVGSVYACLRGGHDEYAHWGQGTQVTVSS | – | – | – | – | binding result [3]: binds
9 | mIL2Rg_VHH13 (VHH, As a his-tagged phage clone periplasmic extract) VHH: QVQLQESGGGSVLAGGSLRLSCVASGYGYNYIGWFRQTPGKEREGVAVIYTGGGDTYYADSVKGRFTASRDNAKSTLYLQMNSLEPEDTAMYYCVARYCVGSVYACLRGGHDEYAHWGQGTQVTVSS | – | – | – | – | binding result [3]: binds
10 | hIL2Rb_VHH5 Mono-Fc VHH (Fc fusion, not shown: a dimerising Fc or GST) QVQLQESGGGSVQVGGSLRLSCATSGDTKSIRCMGWFRQTPGKEREGIAAIDREGFATYADSVYDRFTIAQDNAQNTLYLEMNALKPEDTAMYYCAAQNMCRVVRGAMTGVDYWGKGTQVTVSS | 42% | 0.4 nM | 0.00154 s⁻¹ | 3.82e+06 M⁻¹ s⁻¹ | –
11 | hIL2Rb_VHH6 Mono-Fc VHH (Fc fusion, not shown: a dimerising Fc or GST) QVQLQESGGGSVQAGGSLRLSCAASEYTASRYCMAWFRQAPGKEREGVAAIHPGGGTTYYADSVKGRFSISQDSADNTLYLQMNSLKPEDTAMYYCAAGSLWVPFGDRCAANYWGQGTQVTVSS | 53% | 1.2 nM | 0.0229 s⁻¹ | 1.9e+07 M⁻¹ s⁻¹ | –
12 | hIL2Rb_VHH7 Mono-Fc VHH (Fc fusion, not shown: a dimerising Fc or GST) QVQLQESGGGSVQAGGSLRLSCAASGYEYCRIHMTWYRQGPGKEREFVSSIGSDGRKTYANSVTGRFTISRDNANHTVYLQMNSLSPEDTAMYYCKTEYLYGLGCPDGSAYWGQGTQVTVSS | 43% | 1.1 nM | 0.00317 s⁻¹ | 2.86e+06 M⁻¹ s⁻¹ | –
13 | hIL-2Rg_VHH8 Mono-Fc VHH (Fc fusion, not shown: a dimerising Fc or GST) QVQLQESGGGSVQAGGSLRLSCVASGYTFSSYCMGWFRQAPGKEREGVAALGGGSTYYADSVKGRFTISQDNAKNTLYLQMNSLKPEDTAMYYCAAAWVACLEFGGSWYDLARYKHWGQGTQVTVSS | – | – | – | – | Surface Activity [4]: 110%; Kd [5]: 2.2 nM; koff [5]: 0.000812 s⁻¹; kon [5]: 366000 M⁻¹ s⁻¹
14 | hIL-2Rg_VHH15 Mono-Fc VHH (Fc fusion, not shown: a dimerising Fc or GST) QVQLQESGGGLVQPGGSLRLSCAASGFTFSSAHMSWVRQAPGKGREWIASIYSGGGTFYADSVKGRFTISRDNAKNTLYLQLNSLKAEDTAMYYCATNRLHYYSDDDSLRGQGTQVTVSS | – | – | – | – | Surface Activity [4]: 73%; Kd [5]: 26 nM; koff [5]: 0.00251 s⁻¹; kon [5]: 96800 M⁻¹ s⁻¹
15 | hIL-2Rg_VHH19 Mono-Fc VHH (Fc fusion, not shown: a dimerising Fc or GST) QVQLQESGGGSVQAGGSLRLSCTASGFTFDDREMNWYRQAPGNECELVSTISSDGSTYYADSVKGRFTISQDNAKNTVYLQMDSVKPEDTAVYYCAADFMIAIQAPGAGCWGQGTQVTVSS | – | – | – | – | Surface Activity [4]: 33%; Kd [5]: 2.4 nM; koff [5]: 0.00693 s⁻¹; kon [5]: 2.85e+06 M⁻¹ s⁻¹
16 | hIL-2Rg_VHH20 Mono-Fc VHH (Fc fusion, not shown: a dimerising Fc or GST) QVQLQESGGGSVQAGGSLRLSCTASGFTFDDSDMGWYRQAPGNECELVSTISSDGSTYYADSVKGRFTISQDNAKNTVYLQMNSLKPEDTAVYYCAAEPRGYYSNYGGRRECNYWGQGTQVTVSS | – | – | – | – | Surface Activity [4]: 48%; Kd [5]: 14.1 nM; koff [5]: 0.0027 s⁻¹; kon [5]: 192000 M⁻¹ s⁻¹
17 | hIL-2Rg_VHH21 Mono-Fc VHH (Fc fusion, not shown: a dimerising Fc or GST) QVQLQESGGGSVQAGGSLRLSCVASGYTSCMGWFRQAPGKEREAVATIYTRGRSIYYADSVKGRFTISQDNAKNTLYLQMNSLKPEDIAMYSCAAGGYSWSAGCEFNYWGQGTQVTVSS | – | – | – | – | Surface Activity [4]: 6%; Kd [5]: 17.2 nM; koff [5]: 0.00113 s⁻¹; kon [5]: 65600 M⁻¹ s⁻¹
